Earlier results as cited in article PMC4964448.

What was measured:
MMP9 (Homo sapiens) = MMP9 (Homo sapiens) (UniProt P14780)
PSGL-1 (Homo sapiens) = PSGL-1 (Homo sapiens) (UniProt Q14242)
Sequence of UniProt Q14242 (Q14242 42-320): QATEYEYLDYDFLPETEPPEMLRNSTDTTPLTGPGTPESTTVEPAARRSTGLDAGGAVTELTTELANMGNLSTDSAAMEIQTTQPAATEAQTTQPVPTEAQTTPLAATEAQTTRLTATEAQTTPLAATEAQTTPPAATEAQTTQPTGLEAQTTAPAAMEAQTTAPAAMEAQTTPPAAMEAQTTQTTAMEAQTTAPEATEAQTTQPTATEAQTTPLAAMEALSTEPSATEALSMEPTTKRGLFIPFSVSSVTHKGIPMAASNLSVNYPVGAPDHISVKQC

Sequence of UniProt P14780 (P14780 94-707): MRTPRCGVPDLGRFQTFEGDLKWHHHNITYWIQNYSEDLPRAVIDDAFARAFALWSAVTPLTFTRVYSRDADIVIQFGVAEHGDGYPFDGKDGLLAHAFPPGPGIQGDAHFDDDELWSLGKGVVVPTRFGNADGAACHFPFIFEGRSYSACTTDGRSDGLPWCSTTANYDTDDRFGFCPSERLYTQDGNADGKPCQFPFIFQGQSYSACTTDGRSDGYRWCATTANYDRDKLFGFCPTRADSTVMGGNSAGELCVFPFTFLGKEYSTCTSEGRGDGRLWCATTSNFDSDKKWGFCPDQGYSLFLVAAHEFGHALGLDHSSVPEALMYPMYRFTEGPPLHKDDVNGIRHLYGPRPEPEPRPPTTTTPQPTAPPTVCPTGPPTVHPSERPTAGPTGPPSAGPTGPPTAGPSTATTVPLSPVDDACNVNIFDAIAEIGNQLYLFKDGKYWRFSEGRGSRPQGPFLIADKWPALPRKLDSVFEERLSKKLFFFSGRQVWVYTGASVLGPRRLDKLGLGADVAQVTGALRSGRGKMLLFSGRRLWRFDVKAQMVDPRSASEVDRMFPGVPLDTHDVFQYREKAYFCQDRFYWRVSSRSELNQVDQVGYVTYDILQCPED

Substance: SSL5 (from UniProt Q2G1S6)
- Kd (MMP9 (Homo sapiens)): 1.9 nM
- Kd (PSGL-1 (Homo sapiens)): 820 nM
